Results: publication PMC10397247
Each block holds one binder with its values, some of them ahead of it.

How the values were obtained:
Assay in all cases: two-hybrid library CCmax;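 note: natural log of median RNA to DNA barcode read ratio; higher means stronger binding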
4H_APH = molecular target: T1, 4H_APH; conditions: mean of both orientations
T1 chain: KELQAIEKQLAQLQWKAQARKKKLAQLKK

4H486-AA = molecular target: T2, 4H486-AA; conditions: mean of both orientations
T2 chain: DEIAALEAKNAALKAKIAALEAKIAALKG

4H535-AA = molecular target: T3, 4H535-AA; conditions: mean of both orientations
T3 chain: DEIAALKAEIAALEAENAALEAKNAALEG

4H3651-AA = molecular target: T4, 4H3651-AA
T4 chain: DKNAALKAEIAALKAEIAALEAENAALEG

4H_GCN4 = conditions: mean of both orientations
Sequence of 4H_GCN4 (chain, as listed by the source): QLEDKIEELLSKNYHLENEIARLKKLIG

4H465-AA = molecular target: T5, 4H465-AA; conditions: mean of both orientations
T5 chain: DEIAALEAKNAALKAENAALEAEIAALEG

GCN2_T = molecular target: GCN2_T
4H58-AA = molecular target: T6, 4H58-AA; conditions: mean of both orientations
T6 chain: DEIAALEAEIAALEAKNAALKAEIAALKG

4H_BCR = molecular target: T7, 4H_BCR; conditions: mean of both orientations
T7 chain: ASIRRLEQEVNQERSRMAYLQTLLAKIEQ

4H3705-AA = molecular target: T8, 4H3705-AA; conditions: mean of both orientations
T8 chain: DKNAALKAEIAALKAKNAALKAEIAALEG

4H3782-AA = molecular target: T9, 4H3782-AA; conditions: mean of both orientations
T9 chain: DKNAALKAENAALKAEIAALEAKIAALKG

4H895-AA = molecular target: T10, 4H895-AA; conditions: mean of both orientations
T10 chain: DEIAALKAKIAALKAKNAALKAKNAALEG

APC4436-AA = molecular target: T11, APC4436-AA; conditions: mean of both orientations
T11 chain: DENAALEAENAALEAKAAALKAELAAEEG

APC232-AA = molecular target: T12, APC232-AA; conditions: mean of both orientations
T12 chain: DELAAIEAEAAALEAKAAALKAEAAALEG

APC8910-AA = molecular target: T13, APC8910-AA; conditions: mean of both orientations
T13 chain: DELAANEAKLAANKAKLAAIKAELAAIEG

APC6108-AA = molecular target: T14, APC6108-AA; conditions: mean of both orientations
T14 chain: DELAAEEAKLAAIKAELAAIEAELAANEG

APC9096-AA = molecular target: T15, APC9096-AA; conditions: mean of both orientations
T15 chain: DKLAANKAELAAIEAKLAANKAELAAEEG

APC2405-AA = molecular target: T16, APC2405-AA; conditions: mean of both orientations
T16 chain: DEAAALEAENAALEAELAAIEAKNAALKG

APC5383-AA = molecular target: T17, APC5383-AA; conditions: mean of both orientations
T17 chain: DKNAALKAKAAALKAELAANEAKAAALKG

APC3645-AA = molecular target: T18, APC3645-AA; conditions: mean of both orientations
T18 chain: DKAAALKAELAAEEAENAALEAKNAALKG

APC8191-AA = molecular target: T19, APC8191-AA; conditions: mean of both orientations
T19 chain: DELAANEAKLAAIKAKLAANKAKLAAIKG

APC2237-AA = molecular target: T20, APC2237-AA
T20 chain: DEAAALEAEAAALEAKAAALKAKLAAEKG

APC9319-AA = molecular target: T21, APC9319-AA; conditions: mean of both orientations
T21 chain: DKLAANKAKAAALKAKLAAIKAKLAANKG

APC4264-AA = molecular target: T22, APC4264-AA; conditions: mean of both orientations
T22 chain: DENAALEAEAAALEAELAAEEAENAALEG

APC7099-AA = molecular target: T23, APC7099-AA; conditions: mean of both orientations
T23 chain: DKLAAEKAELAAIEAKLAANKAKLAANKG

APC4011-AA = molecular target: T24, APC4011-AA; conditions: mean of both orientations
T24 chain: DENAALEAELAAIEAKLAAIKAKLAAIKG

4H3631-AA = molecular target: T25, 4H3631-AA; conditions: mean of both orientations
T25 chain: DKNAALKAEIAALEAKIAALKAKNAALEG

4H3588-AA = molecular target: T26, 4H3588-AA; conditions: mean of both orientations
T26 chain: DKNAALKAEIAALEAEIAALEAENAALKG

4H3162-AA = molecular target: T27, 4H3162-AA; conditions: mean of both orientations
T27 chain: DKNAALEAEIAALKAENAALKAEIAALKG

4H982-AA = molecular target: T28, 4H982-AA; conditions: mean of both orientations
T28 chain: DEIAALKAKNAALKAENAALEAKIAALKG

4H2553-AA = molecular target: T29, 4H2553-AA; conditions: mean of both orientations
T29 chain: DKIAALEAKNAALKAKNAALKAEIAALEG

4H2907-AA = molecular target: T30, 4H2907-AA; conditions: mean of both orientations
T30 chain: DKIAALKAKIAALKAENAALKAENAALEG

4H32-AA = molecular target: T31, 4H32-AA; conditions: mean of both orientations
T31 chain: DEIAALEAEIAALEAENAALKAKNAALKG

4H2611-AA = molecular target: T32, 4H2611-AA; conditions: mean of both orientations
T32 chain: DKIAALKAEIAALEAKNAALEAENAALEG

4H3606-AA = molecular target: T33, 4H3606-AA; conditions: mean of both orientations
T33 chain: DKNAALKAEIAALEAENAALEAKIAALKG

4H3133-AA = molecular target: T34, 4H3133-AA; conditions: mean of both orientations
T34 chain: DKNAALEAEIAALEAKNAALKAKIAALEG

4H340-AA = molecular target: T35, 4H340-AA; conditions: mean of both orientations
T35 chain: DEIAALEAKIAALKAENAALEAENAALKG

4H384-AA = molecular target: T36, 4H384-AA; conditions: mean of both orientations
T36 chain: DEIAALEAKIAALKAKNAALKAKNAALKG

4H697-AA = molecular target: T37, 4H697-AA; conditions: mean of both orientations
T37 chain: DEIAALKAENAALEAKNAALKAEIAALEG

4H2648-AA = molecular target: T38, 4H2648-AA; conditions: mean of both orientations
T38 chain: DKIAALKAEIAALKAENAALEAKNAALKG

4H3718-AA = molecular target: T39, 4H3718-AA; conditions: mean of both orientations
T39 chain: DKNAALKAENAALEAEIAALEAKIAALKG

4H3865-AA = molecular target: T40, 4H3865-AA; conditions: mean of both orientations
T40 chain: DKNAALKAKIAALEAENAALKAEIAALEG

4H3378-AA = molecular target: T41, 4H3378-AA
T41 chain: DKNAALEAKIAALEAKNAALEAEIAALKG

4H3697-AA = molecular target: T42, 4H3697-AA; conditions: mean of both orientations
T42 chain: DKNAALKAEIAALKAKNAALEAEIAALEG

4H3413-AA = molecular target: T43, 4H3413-AA; conditions: mean of both orientations
T43 chain: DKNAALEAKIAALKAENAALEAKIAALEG

4H3056-AA = molecular target: T44, 4H3056-AA; conditions: mean of both orientations
T44 chain: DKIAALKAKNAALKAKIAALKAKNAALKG

4H2620-AA = molecular target: T45, 4H2620-AA; conditions: mean of both orientations
T45 chain: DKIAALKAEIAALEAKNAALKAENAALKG

4H2198-AA = molecular target: T46, 4H2198-AA
T46 chain: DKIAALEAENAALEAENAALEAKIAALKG

interaction score (4H_APH): -1.76
interaction score (4H486-AA): -0.82
interaction score (4H535-AA): -1.16
interaction score (4H3651-AA): -0.561
interaction score (4H_GCN4): -1.81
interaction score (4H465-AA): -1.28
interaction score (GCN2_T): -1.92
interaction score (4H58-AA): -0.388
interaction score (4H_BCR): -1.92
interaction score (4H3705-AA): -1.53
interaction score (4H3782-AA): -0.2
interaction score (4H895-AA): 2.08
Binder: DKNAALKAEIAALKAEIAALEAENAALEG [4H3651-AA]

interaction score (APC4436-AA): -2.06
interaction score (APC232-AA): -1.19
interaction score (APC8910-AA): -1.72
interaction score (APC6108-AA): -1.71
interaction score (APC9096-AA): -1.63
interaction score (APC2405-AA): -1.48
interaction score (APC5383-AA): -1.52
interaction score (APC3645-AA): -1.41
interaction score (APC8191-AA): -1.41
interaction score (APC2237-AA): -1.33
interaction score (APC9319-AA): -2.27
interaction score (APC4264-AA): -1.65
interaction score (APC7099-AA): -1.59
interaction score (APC4011-AA): 1.54
Binder: DEAAALEAEAAALEAKAAALKAKLAAEKG [APC2237-AA]

interaction score (4H3631-AA): -1.38
interaction score (4H3588-AA): -1.24
interaction score (4H3162-AA): -1.38
interaction score (4H982-AA): 1.67
interaction score (4H2553-AA): 1.96
interaction score (4H2907-AA): -0.303
interaction score (4H32-AA): -0.333
interaction score (4H2611-AA): -1.63
interaction score (4H3606-AA): -1.01
interaction score (4H3133-AA): -0.581
interaction score (4H340-AA): -1.2
interaction score (4H384-AA): 1.32
interaction score (4H697-AA): 1
interaction score (4H2648-AA): -1.34
interaction score (4H3718-AA): -0.339
interaction score (4H3865-AA): -0.834
interaction score (4H3378-AA): -1.47
interaction score (4H3697-AA): -1.16
interaction score (4H3413-AA): -0.996
interaction score (4H3056-AA): -0.0509
interaction score (4H2620-AA): -0.832
interaction score (4H2198-AA): 0.363
Binder: DKIAALEAENAALEAENAALEAKIAALKG [4H2198-AA]
